Tests used:
ACE2 [1] = molecular target: T1, ACE2 (Homo sapiens, UniProt Q9BYF1); experiment: biochemical
Target sequence in this assay (Q9BYF1 18-805): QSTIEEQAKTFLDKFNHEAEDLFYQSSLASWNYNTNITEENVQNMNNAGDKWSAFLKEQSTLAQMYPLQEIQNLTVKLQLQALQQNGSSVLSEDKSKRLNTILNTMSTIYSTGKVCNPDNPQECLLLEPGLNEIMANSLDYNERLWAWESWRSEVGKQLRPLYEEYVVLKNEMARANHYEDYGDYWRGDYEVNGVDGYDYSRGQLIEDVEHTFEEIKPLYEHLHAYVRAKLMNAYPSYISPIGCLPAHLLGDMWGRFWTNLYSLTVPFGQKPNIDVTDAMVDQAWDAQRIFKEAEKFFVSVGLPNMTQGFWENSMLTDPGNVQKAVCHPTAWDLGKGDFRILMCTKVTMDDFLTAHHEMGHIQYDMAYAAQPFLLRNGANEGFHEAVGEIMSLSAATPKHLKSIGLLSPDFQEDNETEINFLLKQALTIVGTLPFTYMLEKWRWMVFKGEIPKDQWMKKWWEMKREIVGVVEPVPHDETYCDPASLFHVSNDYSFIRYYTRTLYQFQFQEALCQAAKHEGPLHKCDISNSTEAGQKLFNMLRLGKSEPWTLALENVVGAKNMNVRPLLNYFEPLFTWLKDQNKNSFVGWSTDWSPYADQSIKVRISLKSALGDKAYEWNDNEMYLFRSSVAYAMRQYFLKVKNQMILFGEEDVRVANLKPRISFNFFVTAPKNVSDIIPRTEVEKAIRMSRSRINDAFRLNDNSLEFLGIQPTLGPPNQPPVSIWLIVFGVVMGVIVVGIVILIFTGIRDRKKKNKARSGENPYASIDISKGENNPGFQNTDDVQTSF
Experimental: Briefly, recombinant human ACE2 protein (50 µg mL^−1; BP003061) was immobilized on the surface of the nanogold sensor chip, after the chip was activated by 1‐ethyl‐3‐(3‐dimethylaminopropyl)carbodiimide/N‐hydroxysuccinimide. […] K D, ka and kd were calculated using Trace Drawer Evaluation version 2.0 (Trace Software International, Saint‐Romain, France).

ACE2 [2] = molecular target: T1, ACE2; experiment: SPR; recombinant human ACE2 (50 ug/mL) immobilised on a nanogold sensor chip activated with EDC/NHS; dilutions of peptide flowed at 20 uL/min for 7 min; Nicoya OpenSPR
Target sequence in this assay (Q9BYF1 18-740): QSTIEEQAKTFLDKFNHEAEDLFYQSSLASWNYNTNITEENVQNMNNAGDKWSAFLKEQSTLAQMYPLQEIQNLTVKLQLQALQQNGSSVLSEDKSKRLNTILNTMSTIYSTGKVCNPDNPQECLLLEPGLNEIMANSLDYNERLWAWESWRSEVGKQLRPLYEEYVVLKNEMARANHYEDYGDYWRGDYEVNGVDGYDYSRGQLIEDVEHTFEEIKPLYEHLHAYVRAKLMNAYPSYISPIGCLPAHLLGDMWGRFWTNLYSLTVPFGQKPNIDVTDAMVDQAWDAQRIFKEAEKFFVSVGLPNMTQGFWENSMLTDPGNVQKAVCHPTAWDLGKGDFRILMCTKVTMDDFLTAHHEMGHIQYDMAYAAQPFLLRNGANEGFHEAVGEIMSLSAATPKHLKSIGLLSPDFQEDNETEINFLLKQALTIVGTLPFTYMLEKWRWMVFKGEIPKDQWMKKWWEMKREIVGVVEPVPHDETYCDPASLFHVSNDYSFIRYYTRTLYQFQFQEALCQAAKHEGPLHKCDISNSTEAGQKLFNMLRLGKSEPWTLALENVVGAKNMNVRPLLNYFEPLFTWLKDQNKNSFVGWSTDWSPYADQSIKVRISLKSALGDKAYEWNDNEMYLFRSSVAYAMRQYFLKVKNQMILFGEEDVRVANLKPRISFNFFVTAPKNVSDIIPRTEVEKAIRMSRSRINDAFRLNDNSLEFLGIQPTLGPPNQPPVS

in vivo = conditions: female, athymic nude, mouse, HepG2 xenograft tumor, iv, 3.7 MBq, total radioactivity
Experimental: 5 × 10^6 of HepG2 cells were inoculated into the right front shoulder region of the mice to build the xenograft tumor model with ACE2 expression. When the tumor volumes were estimated to be 450–800 mm^3, the mice were used for the studies. […] Scans were performed at 60, 120, and 180 min after administration. […] Subsequently, animals were scanned at 60, 120, and 180 min post‐injection. Regions of interest were defined over tumor, heart, liver, lung, kidney, and muscle and uptake computed relative to the injected activity.
Tumor, heart, liver, lung, kidney and muscle were selected for analysis.

ACE2 [3] = molecular target: T1, ACE2; conditions: in vivo
Target sequence in this assay (Q9BYF1 18-805): as the sequence (Q9BYF1 18-805) above

ACE2 [4] = molecular target: T1, ACE2; conditions: PET/MR 2 h after injection, female volunteers #005 and #012
Target sequence in this assay (Q9BYF1 18-805): as above

[5] = assay type: physicochemical; conditions: 0.01 M PBS, 37 °C, 50 µL tracer in 450 µL PBS, sampled at 1, 2, 4 h; stated within 2 h
Experimental: The solution was analyzed by radio‐HPLC to assess the radiochemical purity. The HPLC was eluted with water‐CH3CN system (Phase A: 0.1% TFA H2O; Phase B: 0.1% TFA CH3CN) using gradient elution (0–5 min 20% B; 5–10 min 20%–80% B; 10–12 min 80% B; 12–15 min 80%–20% B) at a flow rate of 1.0 mL min^−1. The radiolabeling yield was 59.9 ± 3.9% (non‐decay corrected, n = 10) and the radiochemical purity was over 95%. […] At 1, 2, and 4 h time points, 10 µL aliquot was analyzed by radio‐HPLC to assess the radiochemical purity.
Supplemental Figure 2. […] (A) Saturation binding assay […]
assay of DX600. (C) hACE2 expression specifically determine the accumulation of 64Cu-HZ20 over HEK293-hACE2 and HEK293-WT cells for 2 h incubation at 37 °C. (D) Stability analysis

clinical = conditions: human, in vivo, iv, total radioactivity
ACE2 [6] = conditions: cited from earlier work
[7] = assay type: in vivo, mice
Experimental: Supplemental Figure 5. Body weight monitoring following DX600 exposure was conducted in mice for 25 days. The experiment was carried out in 10 mice at 4-weeks of age. The mice were either […]
was repeated on day 0, day 4, day 11, day 18 and day 25, and the weight of the mice was […]
group (n = 5, weight from 26.5 ± 5.2 g to 41.2 ± 3.1 g) and the control group (n = 5, weight from […]

Compound: CC(C)C[C@@H]1NC(=O)[C@@H]2CCCN2C(=O)[C@H](CO)NC(=O)[C@@H](NC(=O)[C@H](Cc2c[nH]cn2)NC(=O)[C@H](CO)NC(=O)[C@H](Cc2ccc(O)cc2)NC(=O)[C@H](CC(=O)O)NC(=O)CNC(=O)CN2CCN(CC(=O)O)CCN(CC(=O)O)CCN(CC(=O)O)CC2)CSSC[C@@H](C(=O)N[C@H](C(=O)N[C@@H](Cc2ccc(O)cc2)C(=O)N2CCC[C@H]2C(=O)N[C@@H](CC(=O)O)C(=O)N2CCC[C@H]2C(=O)N[C@@H](CCC(=O)O)C(=O)NCC(=O)NCC(=O)NCC(N)=O)[C@@H](C)O)NC(=O)[C@H](CCCCN)NC(=O)[C@H](Cc2c[nH]c3ccccc23)NC(=O)[C@H](Cc2c[nH]c3ccccc23)NC(=O)[C@@H]2CCCN2C(=O)[C@H](Cc2ccc(O)cc2)NC(=O)[C@H](Cc2ccc(O)cc2)NC(=O)[C@H](CCCNC(=N)N)NC1=O [HZ20]
- Kd (ACE2 [1]): 100 nM

Compound: DX600 (peptide)
- Kd (ACE2 [2]): 98.7 nM

Compound: DOTA-DX600 (peptide)
- Kd (ACE2 [2]): 100 nM

Compound: CC(C)C[C@@H]1NC(=O)[C@@H]2CCCN2C(=O)[C@H](CO)NC(=O)[C@@H](NC(=O)[C@H](Cc2c[nH]cn2)NC(=O)[C@H](CO)NC(=O)[C@H](Cc2ccc(O)cc2)NC(=O)[C@H](CC(=O)O)NC(=O)CNC(=O)CN2CCN(CC(=O)O)CCN(CC(=O)O)CCN(CC(=O)O)CC2)CSSC[C@@H](C(=O)N[C@H](C(=O)N[C@@H](Cc2ccc(O)cc2)C(=O)N2CCC[C@H]2C(=O)N[C@@H](CC(=O)O)C(=O)N2CCC[C@H]2C(=O)N[C@@H](CCC(=O)O)C(=O)NCC(=O)NCC(=O)NCC(N)=O)[C@@H](C)O)NC(=O)[C@H](CCCCN)NC(=O)[C@H](Cc2c[nH]c3ccccc23)NC(=O)[C@H](Cc2c[nH]c3ccccc23)NC(=O)[C@@H]2CCCN2C(=O)[C@H](Cc2ccc(O)cc2)NC(=O)[C@H](Cc2ccc(O)cc2)NC(=O)[C@H](CCCNC(=N)N)NC1=O [^68Ga‐HZ20, metal not drawn]
- SUV at 2 h (in vivo): 0.099 ± 0.0065 SUV
- tissue uptake per volume at 2 h (in vivo): 0.56 %ID/mL
- SUVmax breast (ACE2 [3]): 2.72
- SUVmax testis (ACE2 [3]): 5.57
- blood-brain barrier penetration (ACE2 [3]): poor
- uptake in immature follicles (ACE2 [4]): no uptake
- uptake in stroma of ovary (ACE2 [4]): slight uptake
- in vitro stability (radiochemical purity by radio-HPLC) [5]: stable
- SUV at 1.5 h (clinical; female, SUVmax breast): 1.78 ± 0.17 SUV
- SUV at 1.5 h (clinical; female, SUVmax breast, old group): 1.35 ± 0.22 SUV
- SUV at 1.5 h (clinical; female, SUVmax breast, young group): 2.21 ± 0.25 SUV
- SUV (clinical; female, SUVmax corpus luteum): 7.35 SUV
- SUV at 1.5 h (clinical; female, SUVmax gallbladder): 2.76 SUV
- SUV at 1.5 h (clinical; female, SUVmax ovary): 2.12 ± 1.42 SUV
- SUV at 1.5 h (clinical; female, SUVmax renal cortex): 38.8 SUV
- SUV at 1.5 h (clinical; female, SUVmax uterus): 2.41 ± 0.34 SUV
- SUV at 1.5 h (clinical; SUVmax conjunctiva): 1.71 ± 0.08 SUV
- SUV at 1.5 h (clinical; SUVmax esophagus): 1.63 ± 0.11 SUV
- SUV at 1.5 h (clinical; SUVmax liver): 1.59 ± 0.14 SUV
- SUV at 1.5 h (clinical; SUVmax nasal): 1.91 ± 0.18 SUV
- SUV at 1.5 h (clinical; SUVmax pancreas): 1.63 ± 0.24 SUV
- SUV at 1.5 h (clinical; SUVmax rectum): 1.46 ± 0.13 SUV
- SUV at 1.5 h (clinical; SUVmax renal cortex (right kidney in Figure 7)): 25.7 ± 1.39 SUV
- SUV at 1.5 h (clinical; SUVmax renal cortex, left kidney): 22.2 ± 1.78 SUV
- SUV at 1.5 h (clinical; SUVmax renal cortex, right kidney, person recovered from COVID-19, 7 months post infection, 90 min): 18.4 SUV
- SUV at 1.5 h (clinical; SUVmax renal medulla): 18.3 ± 1.42 SUV
- SUV at 1.5 h (clinical; male, SUVmax gallbladder): 0.75 SUV
- SUV at 1.5 h (clinical; male, SUVmax gallbladder, male recovered from COVID-19, 90 min): 4.32 SUV
- SUV at 1.5 h (clinical; male, SUVmax left testis): 4.58 ± 0.4 SUV
- SUV at 1.5 h (clinical; male, SUVmax left testis, male recovered from COVID-19, 90 min): 8.65 SUV
- SUV at 1.5 h (clinical; male, SUVmax penis): 2 ± 0.25 SUV
- SUV at 1.5 h (clinical; male, SUVmax renal cortex): 23.9 SUV
- SUV at 1.5 h (clinical; male, SUVmax renal cortex, left kidney, male recovered from COVID-19, 90 min): 11.6 SUV
- SUV at 1.5 h (clinical; male, SUVmax right testis): 4.51 ± 0.54 SUV
- SUV at 1.5 h (clinical; male, SUVmax right testis, male recovered from COVID-19, 90 min): 8.79 SUV
- SUV at 1.5 h (clinical; male, SUVmax small intestine): 0.48 SUV
- SUV at 1.5 h (clinical; male, SUVmax testis): 4.46 ± 0.3 SUV

Compound: CC(=O)NCC(=O)N[C@@H](CC(=O)O)C(=O)N[C@@H](Cc1ccc(O)cc1)C(=O)N[C@@H](CO)C(=O)N[C@@H](Cc1cnc[nH]1)C(=O)N[C@H]1CSSC[C@@H](C(=O)N[C@H](C(=O)N[C@@H](Cc2ccc(O)cc2)C(=O)N2CCC[C@H]2C(=O)N[C@@H](CC(=O)O)C(=O)N2CCC[C@H]2C(=O)N[C@@H](CCC(=O)O)C(=O)NCC(=O)NCC(=O)NCC(N)=O)[C@@H](C)O)NC(=O)[C@H](CCCCN)NC(=O)[C@H](Cc2c[nH]c3ccccc23)NC(=O)[C@H](Cc2c[nH]c3ccccc23)NC(=O)[C@@H]2CCCN2C(=O)[C@H](Cc2ccc(O)cc2)NC(=O)[C@H](Cc2ccc(O)cc2)NC(=O)[C@H](CCCNC(=N)N)NC(=O)[C@H](CC(C)C)NC(=O)[C@@H]2CCCN2C(=O)[C@H](CO)NC1=O [DX600]
- stability to ACE2 catalyzed hydrolysis (ACE2 [6]): stable
- body weight at start ([7]; mice 4 weeks old, n = 5, injections day 0, 4, 11, 18, 25): 26.5 ± 5.2 g
- body weight at end ([7]; mice, n = 5, 25 days, injections day 0, 4, 11, 18, 25): 41.2 ± 3.1 g
- body weight versus saline control group ([7]; mice, n = 5 per group, 25 days): no significant difference
